# ± gives the uncertainty stated by the source.
# B1: SWI/SNF-related matrix-associated actin-dependent regulator of chromatin subfamily B member 1, residues 181 to 248; numbered along this chain, Q12824 (parent)
# chain: SQPEVLVPIRLDMEIDGQKLRDAFTWNMNEKLMTPEMFSEILCDDLDLNPLTFVPAIASAIRQQIESY
# Variants of: B1
# Experiment: abundance fitness (aPCA) (normalised: wild type 0, dead -1); higher = more abundant; growth selection in yeast, the domain comes from the species named
# Details: Homo sapiens
row,Variant,abundance fitness
1,SQPEVLVPIRLDMEIDGQKLRDAFTWNMNEKLMTPEMFSEILCDDLDLNPLTFVPAIASAISQQIESY [R62S],-0.386 ± 0.054
2,SQPEVLVPIRLDMEIDGQKLRDAFTWNMNEKLMTPEMFSEILCDDLDLNPLTFVPAIASAIMQQIESY [R62M],-0.619 ± 0.11
3,SQPEVLVPIRLDMEIDGQKLRDAFTWQMNEKLMTPEMFSEILCDDLDLNPLTFVPAIASAIRQQIESY [N27Q],-0.685 ± 0.14
4,SQPEVLVPIRLDMEIDGQKLRDAFTWNMNEKLMTPEMFSEILCDDLDLNPLTFVPAIASAIRRQIESY [Q63R],-0.115 ± 0.049
5,SQPEVLVPIRLDMEIDGQKLRDAFTWNMNEKLMTPEMFSEILCDDLDLNPLTFVPAIASAIRVQIESY [Q63V],-0.293 ± 0.043
6,SQPEVLVPIRLDMEIDGQKLRDAFTWNMNEKLMTPEMFSEILCDDLDLNPLTFVPAIASAIRDQIESY [Q63D],-0.019 ± 0.082
7,SQPEVLVPIRLDMEIDGQKLRDAFTWNMNEKLMTPEMFSEILCDDLDLNPLTFVPAIASAIRNQIESY [Q63N],-0.038 ± 0.075
8,SQPEVLVPIRLDMEIDGQKLRDAFTWNMNEKLMTPEMFSEILCIDLDLNPLTFVPAIASAIRQQIESY [D44I],-0.259 ± 0.17
9,SQPEVLVPIRLDMEIDGQKLRDAFTWNMNEKLMTPEMFSEILCLDLDLNPLTFVPAIASAIRQQIESY [D44L],-0.251 ± 0.11
10,SQPEVLVPIRLDMEIDGQKLRDAFTWNMNEKLMTPEMFSEILCTDLDLNPLTFVPAIASAIRQQIESY [D44T],-0.467 ± 0.28
11,SQPEVLVPIRLDMEIDGQKLRDAFTWNMNEKLFTPEMFSEILCDDLDLNPLTFVPAIASAIRQQIESY [M33F],-0.542 ± 0.26
12,SQPEVLVPIRLDMEIDGQKLRDAFTWNMNEKLGTPEMFSEILCDDLDLNPLTFVPAIASAIRQQIESY [M33G],-0.797 ± 0.1
13,SQPEVLVPIRLDMEIDGQKLRDAFTWNMNEKLMTPEMFSEILCDDLDLNPLTFRPAIASAIRQQIESY [V54R],-0.22 ± 0.16
14,SQPEVLVPIRLDMEIDGQCLRDAFTWNMNEKLMTPEMFSEILCDDLDLNPLTFVPAIASAIRQQIESY [K19C],0.128 ± 0.11
15,SQPEVLVPIRLDMEIDGQKLRDAFTWNMNEKLMTPEMFSEILCDDLDLNPLTFVPAIASAIRQQISSY [E66S],-0.06 ± 0.039
16,SQPEVLVPIRLDMEIDGQKLRDAFTWNMNEKLMTPEMFSEILCDDLDLNPLTFVPAIASAIRQQICSY [E66C],-0.385 ± 0.098
17,SQPEVLVPIRLDMEIDGQKLRDAFTWNMNWKLMTPEMFSEILCDDLDLNPLTFVPAIASAIRQQIESY [E30W],0.023 ± 0.32
18,SQPEVLVPIRLDMEIDGQKLRDAFTWNMNEKLMTPEMFSEILCDDLDLNPLTFVPAIASAIRQQIESL [Y68L],-0.536 ± 0.15
19,SQPEVLVPIRLDMEIDGQKLRDAFTWNMNEKLMTPEMFSEILCDDLDLNPLTFVPAIASAIRQQIESP [Y68P],-0.473 ± 0.13
20,SQPEVLVPIRLDMEIDGQKLRDAFTWNMNEKLMTPEMFSEILCDDLDLNPLTFVPAIASAIRQQIESK [Y68K],-0.47 ± 0.17

row,Variant,abundance fitness
1,SQPEVLVPIRLDMEIDGQKLRDAFTWNMNEKLMTPEMFSEILCDDLDLNPLTFVPAIASAIRQQIESG [Y68G],-0.661 ± 0.13
2,SQPEVLVPIRLDMEIDGQKLRDAFTWNMNEKLMTPEMFSEDLCDDLDLNPLTFVPAIASAIRQQIESY [I41D],-0.04 ± 0.12
3,SQPEVLVPIRLDMEIDGQKLRDAFTWNMNEKLMTPEMFSEILCDDLDLNPLTFVPAIASAIRQQIEAY [S67A],0.046 ± 0.072
4,SQPEVLVPIRLDMEIDGQKARDAFTWNMNEKLMTPEMFSEILCDDLDLNPLTFVPAIASAIRQQIESY [L20A],-0.671 ± 0.23
5,SQPEVLVPIRLDMEIDGQKLRDAFTWNMNECLMTPEMFSEILCDDLDLNPLTFVPAIASAIRQQIESY [K31C],-0.391 ± 0.095
6,SQPEVLVPIRLDMEIDGQKLRDAFTWNMNEHLMTPEMFSEILCDDLDLNPLTFVPAIASAIRQQIESY [K31H],-0.169 ± 0.078
7,SQPEVLVPIRLDMEIDGQKLRDAFTWNMNEKLMTPEMFSEILCDDLDLKPLTFVPAIASAIRQQIESY [N49K],-0.824 ± 0.13
8,SQPEVLVPIRLDMEIDGQKLRDAFTWNMNEKLMTPEMFSEILCDDLDLYPLTFVPAIASAIRQQIESY [N49Y],-0.666 ± 0.11
9,SQPEVLVPIRLDMEIDGQKLRDAFTWNMNEKLMTPEMFSEILCDDLDLRPLTFVPAIASAIRQQIESY [N49R],-0.789 ± 0.09
10,SQPEVLVPIRLDMEIDGQKLRDAFTWNMNEKLMTPEMFSEILCDDLDLNPLVFVPAIASAIRQQIESY [T52V],-0.005 ± 0.095
11,SQPEVLVPIRLDMEIDGQKLRDAFTWNMNEKLMTPEMFSEILCDDLDLNPLHFVPAIASAIRQQIESY [T52H],-0.104 ± 0.22
12,SQPEVLVPIRLSMEIDGQKLRDAFTWNMNEKLMTPEMFSEILCDDLDLNPLTFVPAIASAIRQQIESY [D12S],-0.474 ± 0.21
13,SQPEVLVPIRLDMEIDGQKLRDAFTWNMNEKLMTPEMFSEIWCDDLDLNPLTFVPAIASAIRQQIESY [L42W],-0.883 ± 0.34
14,SQPEVLVPIRLDMEIDGQKLRDAFTWNMNEKLMTPEMFSEIFCDDLDLNPLTFVPAIASAIRQQIESY [L42F],-0.128 ± 0.21
15,SQPEVLVPIRLDMEIDGQKLRDAFTWNMNEKLMTPEMFSEILCDDLDLNPLTFVPAMASAIRQQIESY [I57M],-0.417 ± 0.068
16,SQPEVLVYIRLDMEIDGQKLRDAFTWNMNEKLMTPEMFSEILCDDLDLNPLTFVPAIASAIRQQIESY [P8Y],-0.55 ± 0.12
17,SQPEVLVAIRLDMEIDGQKLRDAFTWNMNEKLMTPEMFSEILCDDLDLNPLTFVPAIASAIRQQIESY [P8A],-0.676 ± 0.074
18,SQPEVLVPIRLDMEIDGQKLRDAFTWNMNEKLMTPEMFSEILCDDLDLNPLTFVPAIASRIRQQIESY [A60R],-0.285 ± 0.05
19,SQPEVLVPIRLDMEIDGQKLRDAFTWNMNEKLMTPEMFSEILCDDLDLNPLTFVPAIASGIRQQIESY [A60G],-0.528 ± 0.078

# Reference: the Human Domainome abundance scans (Beltran et al. 2025)
